According to US20190321466A1 (CTTQ AKESO SHANGHAI BIOMED TECH, published 2019):

Biological target: T1, PD1 antigen obtained by cleaving PD1-mFc with TEV protease, labeled with biotin (UniProt Q15116 25-170, limits assumed, labeled with biotin (site not stated))
T1 construct: also called antigen PD1
Experiment: Fortebio Octet, biotin-PD1 on SA sensor, antibody in solution
Text: 2. […] The dissociation of antigen and antibody were also in PBST.

T1 sequence (Q15116 25-170 limits assumed): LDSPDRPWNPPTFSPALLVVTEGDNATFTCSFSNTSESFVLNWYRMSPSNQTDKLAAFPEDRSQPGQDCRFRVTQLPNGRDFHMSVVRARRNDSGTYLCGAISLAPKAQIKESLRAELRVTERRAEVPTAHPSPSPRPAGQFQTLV

Kd: 0.0181 nM
koff: 6.12e-06 s⁻¹
kon: 338000 M⁻¹ s⁻¹
B1: monoclonal antibody 14C12 (secreted by hybridoma cell line LT003) (antibody, V domains shown)
VH: EVKLVESGGGLVKPGGSLKLSCAASGFAFSSYDMSWVRQTPEKRLEWVATISGGGRYTYYPDSVKGRFTISRDNARNTLYLQMSSLRSEDTALYYCANRYGEAWFAYWGQGTLVTVSA
VL: DIKMTQSPSSMYASLGERVTFTCKASQDINTYLSWFQQKPGKSPKTLIYRANRLVDGVPSRFSGSGSGQDYSLTISSLEYEDMGIYYCLQYDEFPLTFGAGTKLEL
notes: Mouse antibody purified from hybridoma supernatant; also called PD1-14C12
